Measurements published in patent publication US20210301018A1 (ITABMED HK, published 2021).

Columns and labels:
[1] = target: T1, human CD19 on cells (human B lymphocytes; Raji, Daudi and Reh tumor cells) (human, UniProt P15391 20-556); experiment: cell-based or functional assay
T1 sequence (looked up): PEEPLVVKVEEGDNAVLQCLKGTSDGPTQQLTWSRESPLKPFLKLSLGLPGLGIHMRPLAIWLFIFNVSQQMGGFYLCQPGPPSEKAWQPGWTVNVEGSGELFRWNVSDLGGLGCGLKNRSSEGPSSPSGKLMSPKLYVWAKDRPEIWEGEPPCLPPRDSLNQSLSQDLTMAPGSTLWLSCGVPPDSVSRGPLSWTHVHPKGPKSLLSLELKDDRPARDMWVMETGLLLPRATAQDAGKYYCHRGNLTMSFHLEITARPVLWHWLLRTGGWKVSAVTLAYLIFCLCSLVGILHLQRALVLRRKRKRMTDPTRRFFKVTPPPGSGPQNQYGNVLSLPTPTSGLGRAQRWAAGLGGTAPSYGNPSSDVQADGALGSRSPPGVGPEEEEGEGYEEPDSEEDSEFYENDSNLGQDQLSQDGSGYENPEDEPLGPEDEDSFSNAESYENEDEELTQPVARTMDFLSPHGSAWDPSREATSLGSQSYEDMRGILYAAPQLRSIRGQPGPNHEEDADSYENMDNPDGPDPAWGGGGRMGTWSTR

[2] = target: T2, Recombinant Human CD19 Fc Chimera (R&D Systems) (human, UniProt P15391 20-291); experiment: BLI (Octet QKe), antigen-Fc captured on AHC sensor, ITAB2009 in solution
T2 construct: Bought reagent; also called huCD19.Fc; not shown: Fc of the bought chimera
T2 sequence (looked up): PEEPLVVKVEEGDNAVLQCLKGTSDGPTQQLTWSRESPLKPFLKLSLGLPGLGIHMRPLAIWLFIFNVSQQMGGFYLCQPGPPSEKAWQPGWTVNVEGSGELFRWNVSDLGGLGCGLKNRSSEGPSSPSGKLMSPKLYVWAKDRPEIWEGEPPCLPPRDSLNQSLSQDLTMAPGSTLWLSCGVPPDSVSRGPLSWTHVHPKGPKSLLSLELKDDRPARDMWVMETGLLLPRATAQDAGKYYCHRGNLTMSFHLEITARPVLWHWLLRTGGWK
Protocol: (§1) The human CD3 antigen construct (CD3εAA 1-27.Fc) and the cynomolgus monkey CD3 antigen construct (cynoCD3εAA 1-27.Fc) each consists of a peptide of amino acid residues 1-27 of CD3ε connected to a human IgG Fc. The expression of the antigen constructs is described in U.S. Pat. No. 8,846,042. The CD3 or CD19 antigen constructs (Cynomolgus/Rhesus CD19 Protein (Fc Tag), Sino Biological. Inc.; Recombinant Human CD19 Fc Chimera, R&D Systems. Inc.) were diluted to 0.02 mg/mL with dilution buffer (PBS), and then immobilized on an anti-Human Fc capture (AHC) biosensor. […] The control wells containing only PBS were also set up. The detection results were analyzed using ForteBio Data Analysis software.

[3] = target: T3, Cynomolgus/Rhesus CD19 Protein (Fc Tag) (Sino Biological) (cynomolgus monkey / rhesus, UniProt F7F486 20-292 (rhesus entry)); experiment: as above
T3 construct: Bought reagent; also called cynoCD19.Fc
T3 sequence: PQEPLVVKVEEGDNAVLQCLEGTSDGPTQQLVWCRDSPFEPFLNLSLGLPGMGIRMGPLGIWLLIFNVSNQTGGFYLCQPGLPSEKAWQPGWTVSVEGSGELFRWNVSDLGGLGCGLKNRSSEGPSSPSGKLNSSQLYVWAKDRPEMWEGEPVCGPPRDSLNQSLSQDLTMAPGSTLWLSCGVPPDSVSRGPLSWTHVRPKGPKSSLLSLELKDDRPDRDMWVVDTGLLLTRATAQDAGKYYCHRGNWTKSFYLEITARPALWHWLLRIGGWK
Protocol: as §1

[4] = target: T4, cynomolgus monkey CD3 antigen construct cynoCD3εAA 1-27.Fc (cynomolgus monkey; human, UniProt Q95LI5 22-48); experiment: as above
T4 construct: range 1-27
T4 chain (looked up): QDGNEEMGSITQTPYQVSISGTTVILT
Protocol: as §1

[5] = target: T1, human CD19 on cells (human B …); experiment: flow cytometry, binding rate on B cells in human PBMC, detection with anti-human Ig κ light chain
Protocol: (§2) About 3.6×10⁵ PBMCs (huPBMC or cynoPBMC) per well were added to a 96-well plate. […] Cells were washed with FACS buffer once, resuspended in 50 μL FACS buffer, supplemented with Antibody PE Mouse Anti-Human CD20 (BD Pharmingen™), FITC Mouse Anti-Human CD4 (BD Pharmingen™), and APC Mouse anti-Human Ig, κ Light Chain (BD Pharmingen™), and incubated at room temperature for 45 min. 200 μL FACS buffer was finally added, and the samples were analyzed using ACCURI® C6 Cytometer (BD Biosciences).
(§3) Binding rate was plotted against the y-axis, and drug concentration was plotted against the x-axis. The curve was fitted using a 4-parameter logistic model to determine EC50.

[6] = target: T5, human CD3 on human T lymphocytes (huPBMC) (human, UniProt P07766 23-207); experiment: flow cytometry, binding rate on T cells in human PBMC, detection with anti-human Ig κ light chain
T5 construct: whole, on cells; also called huCD3; cell surface antigen CD3 on human T cells
T5 sequence (P07766 23-207): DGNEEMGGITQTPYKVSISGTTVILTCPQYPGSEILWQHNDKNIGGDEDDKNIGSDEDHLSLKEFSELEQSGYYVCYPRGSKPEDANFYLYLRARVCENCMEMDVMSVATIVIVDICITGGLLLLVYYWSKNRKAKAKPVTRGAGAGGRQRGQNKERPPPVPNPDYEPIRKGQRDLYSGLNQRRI
Protocol: as §2, §3

[7] = target: T6, cynomolgus monkey CD19 on cynomolgus monkey B lymphocytes (cynoPBMC) (cynomolgus monkey, UniProt A0A2K5W8L9 20-557); experiment: flow cytometry, binding rate on B cells in cynomolgus monkey PBMC, detection with anti-human Ig κ light chain
T6 construct: whole, on cells; also called cynoCD19; cell surface antigen CD19 on cynomolgus monkey B cells
T6 sequence: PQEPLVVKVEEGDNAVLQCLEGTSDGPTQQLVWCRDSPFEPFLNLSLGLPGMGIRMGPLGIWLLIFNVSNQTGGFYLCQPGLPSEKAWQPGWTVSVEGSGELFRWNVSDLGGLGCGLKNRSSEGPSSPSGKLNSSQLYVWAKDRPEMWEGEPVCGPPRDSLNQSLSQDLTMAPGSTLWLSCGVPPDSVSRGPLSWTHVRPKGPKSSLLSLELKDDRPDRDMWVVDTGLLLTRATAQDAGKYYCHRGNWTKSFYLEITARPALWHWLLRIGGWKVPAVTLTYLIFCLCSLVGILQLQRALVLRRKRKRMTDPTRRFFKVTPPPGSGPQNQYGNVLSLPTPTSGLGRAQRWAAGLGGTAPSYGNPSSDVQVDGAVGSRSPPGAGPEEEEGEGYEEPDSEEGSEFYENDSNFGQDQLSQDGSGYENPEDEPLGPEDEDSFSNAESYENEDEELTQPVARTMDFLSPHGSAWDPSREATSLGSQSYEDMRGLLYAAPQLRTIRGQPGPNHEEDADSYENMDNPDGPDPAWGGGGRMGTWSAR
Protocol: (§4) CynoPBMC Preparation: Whole blood samples from cynomolgus monkeys were diluted with PBS buffer (Gibco), centrifuged by density gradient centrifugation using 90% Ficoll-Paque isolation buffer (obtained by diluting Ficoll-Paque with PBS, Ficoll-Paque, GE Healthcare) to obtain PBMC, washed twice with PBS, then centrifuged at room temperature, 1000 g for 10 min. Cells were collected, and resuspended in RPM′ 1640 Medium (Gibco) containing 10% FBS.
as §2, §3

[8] = target: T7, cynomolgus monkey CD3 on cynomolgus monkey T lymphocytes (cynoPBMC) (cynomolgus monkey, UniProt Q95LI5 22-198); experiment: flow cytometry, binding rate on T cells in cynomolgus monkey PBMC, detection with anti-human Ig κ light chain
T7 construct: whole, on cells; also called cynoCD3; cell surface antigen CD3 on cynomolgus monkey T cells
Protocol: as §4, §2, §3

B1: CD19×CD3 bispecific antigen binding protein ITAB2009 (bispecific antibody)
chain: EVQLVESGGGLVQPGGSLRLSCAASGFTFNTYAMNWVRQAPGKGLEWVARIRSKYNNYATYYADSVKDRFTISRDDSKNTLYLQMNSLRAEDTAVYYCVRHGNFGNSYVSWFAYWGQGTMVTVSSGGGGSGGGGSGGGGSQAVVTQEPSLTVSPGGTVTLTCRSSTGAVTTSNYANWVQQKPGQAPRGLIGGTNKRAPGTPARFSGSLLGGKAALTLSGVQPEDEAEYYCALWYSNLWVFGGGTKLTVLSGGGGSQVQLVQSGPELIKPGGSVKMSCKASGYTFTSYVMHWVRQKPGQGLEWIGYINPYNDGTKYNEKFKGRATLTSDKSSSTAYMELSSLRSEDSAVYYCARGTYYYGSRVFDYWGQGTTVTVSSASTKGPSVFPLAPSSKSTSGGTAALGCLVKDYFPEPVTVSWNSGALTSGVHTFPAVLQSSGLYSLSSVVTVPSSSLGTQTYICNVNHKPSNTKVDKKVEPKSCPPCS
light: DVVMTQSPSSIPVTLGESVSISCRSSKSLQNVNGNTYLYWFQQRPGQSPQLLIYRMSNLNSGVPDRFSGSGSGTDFTLRISGVEPEDVGVYYCMQHLEYPITFGAGTKLEIKRTVAAPSVFIFPPSDEQLKSGTASVVCLLNNFYPREAKVQWKVDNALQSGNSQESVTEQDSKDSTYSLSSTLTLSKADYEKHKVYACEVTHQGLSSPVTKSFNRGECPPCS
notes: Anti-CD3 scFv joined to the N-terminus of the VH of the anti-CD19 Fab; also called CD19×CD3 BSAP ITAB2009; ITB2009
EC50 of CD19×CD3 BSAP mediated human PBMC cytotoxicity against tumor cells (Daudi) [1]: 0.06 ng/mL
EC50 of CD19×CD3 BSAP mediated human PBMC cytotoxicity against tumor cells (Raji) [1]: 0.04 ng/mL
EC50 of CD19×CD3 BSAP mediated human PBMC cytotoxicity against tumor cells (Reh) [1]: 0.24 ng/mL
Kd [2]: 18.2 nM
Kd [3]: 29.6 nM
Kd [4]: 12.9 nM
EC50 [5]: 35 ng/mL
EC50 [6]: 204 ng/mL
EC50 [7]: 1900 ng/mL
EC50 [8]: 115 ng/mL
